The values that follow come from patent publication US20230181753A1 (INSERM INSTITUT NATIONAL DE LA SANTE ET DE LA RECHERCHE …, published 2023).

Substrate in assay [1]: ICOS (Inducible T cell costimulator) (UniProt Q9Y6W8)
Kind of assay: flow cytometry, staining of MJ cells. (In general: A flow cytometer gives signals particle by particle.)

Substrate in assay [2]: ICOS (Inducible T cell costimulator) (UniProt Q9Y6W8)
Kind of assay: flow cytometry, staining of MyLa cells.

Substrate in assay [3]: ICOS (Inducible T cell costimulator) (UniProt Q9Y6W8)
Kind of assay: flow cytometry, staining of HUT78 cells.

The target in assay [4] is T1, ICOS (Inducible T cell costimulator) (UniProt Q9Y6W8 21-199, limits assumed).
T1 sequence (looked up): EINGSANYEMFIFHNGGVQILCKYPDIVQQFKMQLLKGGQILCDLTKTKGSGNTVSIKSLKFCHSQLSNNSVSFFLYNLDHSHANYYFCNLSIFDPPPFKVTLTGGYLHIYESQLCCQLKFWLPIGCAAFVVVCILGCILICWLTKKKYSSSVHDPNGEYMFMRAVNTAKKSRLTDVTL
Kind of assay: cell-based or functional assay.

B1: 314.8 mAb (antibody, V domains shown)
VH: QVQLQQPGTELMKPGASVKLSCKASGYTFTTYWMHWVKQRPGQGLEWIGEIDPSDSYVNYNQNFKGKATLTVDKSSSTAYIQLSSLTSEDSAVYFCARSPDYYGTSLAWFDYWGQGTLVTVST
VL: DIVMTQAAPSVPVTPGESVSISCRSSKSPLHSNGNIYLYWFLQRPGQSPQLLIYRMSNLASGVPDRFSGSGSGTTFTLKISRVEAEDVGVYYCMQHLEYPYTFGGGTKLEIK
Regarding B1, the MFI ratio came out at 96 in assay [1], 144 in assay [2] and 4.5 in assay [3].

B2: anti-ICOS-PBD ADC (antibody, V domains shown)
VH: B1 VH
VL: B1 VL
modifications: coupled to pyrrolobenzodiazepine (PBD); site and linker not stated
Take B2: in assay [4], the “IC50, cell viability (alamarBlue), HUT78 cells” value came to 9 ng/mL; the “IC50, cell viability (alamarBlue), Jurkat-ICOS cells” value was 0.7 ng/mL; the “IC50, cell viability (alamarBlue), MJ cells” value is 0.8 ng/mL; the “IC50, cell viability (alamarBlue), MyLa cells” value turned out to be 1.2 ng/mL.

B3: anti-ICOS-MMAE ADC (anti-ICOS 314.8-MMAE) (antibody, V domains shown)
VH: B1 VH
VL: B1 VL
modifications: coupled to MMAE; site and linker not stated
On to B3, for which, in assay [4], the “IC50, cell viability (alamarBlue), Jurkat-ICOS cells” value is 6.7 ng/mL; the “IC50, cell viability (alamarBlue), MJ cells” value is 36.2 ng/mL; the “IC50, cell viability (alamarBlue), MyLa cells” value is 8.2 ng/mL.
